Measured values from patent US20070276125A1.
Positions of bridges follow the written chain, without caps; N, C: chain ends. No end group written: not given here.

Experiments:
FcγIIa [1] = assay: reverse ELISA: PAP on FcγIIa-coated plate, no inhibitor
[2] = target: myelin basic protein (MBP, Sigma); assay: reverse ELISA: binding of MBP to IgG PAP immune complexes, no inhibitor
FcγIII [3] = assay: reverse ELISA: rabbit PAP on FcγIII-coated plate, no inhibitor
FcγIIb [4] = assay: reverse ELISA: rabbit PAP on FcγIIb-coated plate, no inhibitor
Chain of FcγIIb (P31994 43-217): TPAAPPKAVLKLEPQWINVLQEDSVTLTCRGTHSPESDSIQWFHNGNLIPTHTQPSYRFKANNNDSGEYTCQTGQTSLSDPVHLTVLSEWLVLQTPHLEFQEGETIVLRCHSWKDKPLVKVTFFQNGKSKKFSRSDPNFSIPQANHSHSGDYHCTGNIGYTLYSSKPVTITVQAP

FcγIIb [5] = assay: reverse ELISA: PAP on FcγIIb-coated plate, no inhibitor
Histone (Sigma) [6] = assay: reverse ELISA: binding of histones to IgG PAP immune complexes, no inhibitor
[7] = target: myelin basic protein (MBP, Sigma); assay: reverse ELISA: rabbit PAP on MBP-coated plate, no inhibitor
Histone (Sigma) [8] = assay: reverse ELISA: rabbit PAP on histone-coated plate, no inhibitor
whole human IgG4 = assay: reverse ELISA: immune complexes on IgG4-coated plate, no inhibitor
FcγIII [9] = assay: reverse ELISA: PAP on FcγIII-coated plate, no inhibitor
FcγIIa [10] = assay: reverse ELISA: rabbit PAP on FcγIIa-coated plate, no inhibitor
human C1q (human) [11] = target: human C1q (human) (UniProt P02745); assay: reverse ELISA: rabbit PAP on C1q-coated plate, no inhibitor
Chain of human C1q (human) (P02745 23-245 limits assumed, chain 1 of 3): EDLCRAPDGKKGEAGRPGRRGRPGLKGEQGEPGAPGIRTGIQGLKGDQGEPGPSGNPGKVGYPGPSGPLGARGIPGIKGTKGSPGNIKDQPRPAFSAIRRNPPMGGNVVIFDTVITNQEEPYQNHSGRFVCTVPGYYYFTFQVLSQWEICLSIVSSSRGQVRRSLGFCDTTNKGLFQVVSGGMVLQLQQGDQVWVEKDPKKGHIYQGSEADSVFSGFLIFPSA
Chain of human C1q (human) (P02746 28-253 limits assumed, chain 2 of 3, further chain): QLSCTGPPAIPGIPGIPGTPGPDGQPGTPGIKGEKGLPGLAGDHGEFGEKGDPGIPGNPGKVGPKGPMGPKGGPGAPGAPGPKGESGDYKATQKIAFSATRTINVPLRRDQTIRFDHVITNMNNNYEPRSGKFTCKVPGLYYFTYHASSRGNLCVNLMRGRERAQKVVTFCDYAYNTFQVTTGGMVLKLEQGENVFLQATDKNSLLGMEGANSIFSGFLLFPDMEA
Chain of human C1q (human) (P02747 29-245 limits assumed, chain 3 of 3, further chain): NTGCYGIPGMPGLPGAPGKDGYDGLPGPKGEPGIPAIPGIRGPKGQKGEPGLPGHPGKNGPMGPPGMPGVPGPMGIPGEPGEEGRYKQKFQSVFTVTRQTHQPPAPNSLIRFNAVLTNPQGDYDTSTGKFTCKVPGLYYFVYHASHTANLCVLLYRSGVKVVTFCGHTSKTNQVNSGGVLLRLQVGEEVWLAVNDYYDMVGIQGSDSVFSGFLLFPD

human C1q (human) [12] = target: human C1q (human) (UniProt P02745); assay: reverse ELISA: PAP on C1q-coated plate, no inhibitor
[13] = target: peroxidase-anti-peroxidase (PAP) immune complex (preformed immune complex of peroxidase and anti-peroxidase IgG); assay: reverse ELISA, competition: soluble histone pre-incubated with rabbit PAP, then histone-coated plate; lower = more inhibition
[14] = target: peroxidase-anti-peroxidase (PAP) immune complex (preformed immune complex of peroxidase and anti-peroxidase IgG); assay: reverse ELISA, competition: soluble MBP pre-incubated with rabbit PAP, then MBP-coated plate; lower = more inhibition
[15] = target: peroxidase-anti-peroxidase (PAP) immune complex (preformed immune complex of peroxidase and anti-peroxidase IgG); assay: reverse ELISA, competition: pre-incubated with rabbit PAP, then FcγIIa-coated plate (competitor: FcγIIa); lower = more inhibition
[16] = target: peroxidase-anti-peroxidase (PAP) immune complex (preformed immune complex of peroxidase and anti-peroxidase IgG); assay: reverse ELISA, competition: pre-incubated with rabbit PAP, then C1q-coated plate (competitor: C1q); lower = more inhibition
[17] = target: peroxidase-anti-peroxidase (PAP) immune complex (preformed immune complex of peroxidase and anti-peroxidase IgG); assay: reverse ELISA, competition: pre-incubated with rabbit PAP, then RF-coated plate (competitor: RF); lower = more inhibition
[18] = target: human monomeric IgG (Research Diagnostics); assay: RF test, competition: peptide pre-incubated 1 hour with human monomeric IgG, washed, then 200 I.U. RF (competitor); OD = RF bound, lower = more inhibition
[19] = target: peroxidase-anti-peroxidase (PAP) immune complex (preformed immune complex of peroxidase and anti-peroxidase IgG); assay: reverse ELISA, competition: pre-incubated with rabbit PAP, then FcγIII-coated plate (competitor: FcγIII); lower = more inhibition
[20] = target: peroxidase-anti-peroxidase (PAP) immune complex (preformed immune complex of peroxidase and anti-peroxidase IgG); assay: reverse ELISA, competition: pre-incubated with rabbit PAP, then FcγIIb-coated plate (competitor: FcγIIb); lower = more inhibition
[21] = target: peroxidase-anti-peroxidase (PAP) immune complex (preformed immune complex of peroxidase and anti-peroxidase IgG); assay: reverse ELISA, competition: pre-incubated with PAP, then C1q-coated plate (competitor: C1q); OD = PAP bound, lower = more inhibition
[22] = target: peroxidase-anti-peroxidase (PAP) immune complex (preformed immune complex of peroxidase and anti-peroxidase IgG); assay: reverse ELISA, competition: pre-incubated with PAP, then FcγIII-coated plate (competitor: FcγIII); lower = more inhibition
[23] = target: peroxidase-anti-peroxidase (PAP) immune complex (preformed immune complex of peroxidase and anti-peroxidase IgG); assay: reverse ELISA, competition: pre-incubated with rabbit PAP, then MBP-coated plate (competitor: MBP); lower = more inhibition
[24] = target: peroxidase-anti-peroxidase (PAP) immune complex (preformed immune complex of peroxidase and anti-peroxidase IgG); assay: reverse ELISA, competition: pre-incubated with PAP, then RF-coated plate (competitor: RF); lower = more inhibition
[25] = target: peroxidase-anti-peroxidase (PAP) immune complex (preformed immune complex of peroxidase and anti-peroxidase IgG); assay: reverse ELISA, competition: pre-incubated with PAP, then FcγIIb-coated plate (competitor: FcγIIb); lower = more inhibition
[26] = target: human monomeric IgG (Research Diagnostics); assay: RF test, competition: peptide pre-incubated with human monomeric IgG, washed, then 200 I.U. RF (competitor); OD = RF bound, lower = more inhibition
[27] = target: peroxidase-anti-peroxidase (PAP) immune complex (preformed immune complex of peroxidase and anti-peroxidase IgG); assay: reverse ELISA, competition: pre-incubated with rabbit PAP, then histone-coated plate (competitor: histone); lower = more inhibition
[28] = target: peroxidase-anti-peroxidase (PAP) immune complex (preformed immune complex of peroxidase and anti-peroxidase IgG); assay: reverse ELISA, competition: peptide with immune complexes, IgG4-coated plate (competitor: IgG4); lower = more inhibition
[29] = target: peroxidase-anti-peroxidase (PAP) immune complex (preformed immune complex of peroxidase and anti-peroxidase IgG); assay: reverse ELISA, competition: pre-incubated with PAP, then FcγIIa-coated plate (competitor: FcγIIa); lower = more inhibition

Chain of FcγIIa (P12318 34-217): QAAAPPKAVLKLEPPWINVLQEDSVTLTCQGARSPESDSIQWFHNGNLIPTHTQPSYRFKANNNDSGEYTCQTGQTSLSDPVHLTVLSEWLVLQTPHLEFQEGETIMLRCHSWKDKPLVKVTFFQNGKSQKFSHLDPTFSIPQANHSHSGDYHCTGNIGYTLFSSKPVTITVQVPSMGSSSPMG

Row | OD 405 nm [21] [OD] | OD 450 nm [22] [OD] | OD 405 nm [23] [OD] | OD 405 nm [24] [OD] | OD 450 nm [25] [OD] | OD 405 nm [26] [OD] | OD 405 nm [27] [OD] | OD 405 nm [28] [OD] | OD 450 nm [29] [OD] | Molecule | other results
1 | – | – | – | – | – | – | – | – | – | peroxidase-anti-peroxidase (PAP) immune complex (preformed immune complex of peroxidase and anti-peroxidase IgG) | OD 450 nm (FcγIIa [1]): 3.6 OD; OD 405 nm [2]: 2.34 OD; OD 405 nm (FcγIII [3]): 1.59 OD; OD 405 nm (FcγIIb [4]): 1.39 OD; OD 450 nm (FcγIIb [5]): 3.6 OD; OD 405 nm (Histone (Sigma) [6]): 2.11 OD; OD 405 nm [7]: 1.03 OD; OD 405 nm (Histone (Sigma) [8]): 1.27 OD; OD 405 nm (whole human IgG4): 0.716 OD; OD 450 nm (FcγIII [9]): 3.6 OD; OD 405 nm (FcγIIa [10]): 1.6 OD; OD 405 nm (human C1q (human) [11]): 2.35 OD; OD 405 nm (human C1q (human) [12]): 0.467 OD
2 | – | – | – | – | – | – | – | – | – | Histone (Sigma) | OD 405 nm [13]: 0.057 OD
3 | – | – | – | – | – | – | – | – | – | myelin basic protein (MBP, Sigma) | OD 405 nm [14]: 0.139 OD
4 | – | – | – | – | – | – | – | – | – | DCAFHLGELVWCT (cyclized by a disulfide bond between the two cysteine residues) [… peptide (SEQ ID NO:3)] | OD 405 nm [15]: 0.66 OD; OD 405 nm [16]: 0.859 OD; OD 405 nm [17]: 0.267 OD; OD 405 nm [18]: 0.962 OD; OD 405 nm [19]: 0.81 OD; OD 405 nm [20]: 0.51 OD
5 | 0.193 | 2.53 | 0.473 | 0.109 | 1.95 | 1.23 | 0.363 | 0.096 | 2.54 | DCARHLGELVWCT (disulfide 2-12 (inferred)) [… peptide (SEQ ID NO:4)] | –
6 | – | – | – | – | – | – | – | 0.107 | – | APPDCARHLGELVWCT (cyclized by a disulfide bond between the two cysteine residues) [… peptide (printed in Table 8 with SEQ ID NO:14)] | –
7 | 0.205 | 1.6 | 0.489 | 0.106 | 1.21 | 1.32 | 0.444 | 0.129 | 1.15 | PCARHLGELVWCT (disulfide 2-12 (inferred)) [… peptide (SEQ ID NO:41)] | –
8 | 0.247 | 3.5 | 0.569 | 0.152 | 3.28 | 1.31 | 0.359 | 0.191 | 3.4 | RCARHLGELVWCT (disulfide 2-12 (inferred)) [… peptide (SEQ ID NO:5)] | –
9 | 0.458 | 2.41 | – | – | 2.26 | 1.42 | – | – | 2.43 | DCAAHLGELAACT (cyclized by a disulfide bond between the two cysteine residues) [… peptide (SEQ ID NO:40)] | –
10 | – | 1.34 | 0.706 | 0.622 | 1.07 | 1.4 | 0.729 | 0.557 | 1.48 | DCAWHLGELAACT (cyclized by a disulfide bond between the two cysteine residues) [… peptide (SEQ ID NO:42)] | –
